The test deals with T1, recombinant human TNF R1/TNFRSF1A/Fc chimera (R+D Systems) (human, UniProt P19438 30-211).
T1 construct: Bought chimera; also called TNF-αR1; TNFR1 Fc; Fc part of the bought chimera not given
T1 sequence (looked up): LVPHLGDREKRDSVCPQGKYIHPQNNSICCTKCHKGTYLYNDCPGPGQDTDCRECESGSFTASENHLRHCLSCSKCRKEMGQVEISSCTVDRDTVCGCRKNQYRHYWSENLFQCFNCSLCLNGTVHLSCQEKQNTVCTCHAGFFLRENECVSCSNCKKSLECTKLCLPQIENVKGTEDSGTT
The experiment in a line: sandwich ELISA, TNF R1 Fc chimera coated on the plate, anti-human IgG F(ab)2 then anti-goat/sheep-HRP detection. In general terms: ELISA stands for enzyme-linked immunosorbent assay.

B1: Dom 1h-131-206 (other)
chain: EVQLLESGGGLVQPGGSLRLSCAASGFTFAHETMVWVRQAPGKGLEWVSHIPPDGQDPFYADSVKGRFTISRDNSKNTLYLQMNSLRAEDTAVYHCALLPKRGPWFDYWGQGTLVTVSS
notes: Immunoglobulin single variable domain (dAb) with specificity for TNF-αR1; also called α-TNF-αR1 dAb; anti TNF alpha R1 dAb
Consider B1, for which the binding result is recorded as “binds”.

These data come from US20110256122A1 (published 2011).
